Data: the nanobody polyreactivity screen of Harvey et al. (2022)

assay: yeast display, Sf9 membrane polyspecificity reagent, FACS + sequencing; frameworks hold sequencing errors
In short: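 A synthetic nanobody library was expressed on Saccharomyces cerevisiae BJ5465 by galactose induction for 36–48 hours. The library was stained for 1 hour at 4 °C with 10% biotinylated, detergent-solubilized Sf9 membrane reagent and enriched with streptavidin microbeads before FACS. Low and high (top ~1%) gates were set on anti-HA fluorescence for expression and streptavidin fluorescence for reagent binding, and each polyreactivity label reflects the gate of origin.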

Sequence	polyreactivity (PSR sort gate)
QVQLVESGGGLVQAGGSLRLSCAASGSIFYIYAMGWSRQAPGKERELVASITFSGDITYYADSVKGRFTISRDNAKNTVYLQMNSLKPEDTAVYYCNTRTPYWFKSDYWGQGTQVTVSS	low polyreactivity
QVQLVESGGGLVQAGGSLRLSCAASGSIFRVNDMGWYRQAPGKERELVAAISSNGDDTFYADSVKGRFTISRDNAKNTVYLQMNSLKPEDTAVYYCNAESPTYPDYYFKYTHYDYWGQGTQVTVSS	low polyreactivity
QVQLVESGGGLVQAGGSLRLSFAASGRTFGRYAMGWYRPATGKERELVATISSRGGNTYYADSVKGRFTISRDNAQKTVYLEMNSLKAEDTAVYYCAAQTYKWYDWGQGTQVTVSS	high polyreactivity
QVQLVESGGGLVQAGGSLRLSCAASGSIFVVYAMGWYRQAPGKERELVAGISGRDGSTYYADSVKGRFTISRDNGKNTVYLQMNSLKPEDTAVYYSARVYWGQGTQVTVSS	low polyreactivity
QVQLVESGGGLVQAGGSLRLSCAASRRIFDHNAMGWYRQAPGKERELVAAISSSGGRTYYADSVKGRFTISRDNAKNTVYLQMNSLKPEDTAVYYCNKVRTVTTYEYWGQGTQVTVSS	high polyreactivity
QVQLVESGGGLVQAGGSLRLSCAASGIIFGVYAMGWYRQAPGKERELVADISSGDSTNYADSVKGRFTISRANAKNTVYLQMNSLKPEDTAVYYCAAEFGRMYWRYGYWGQGTQVTVSS	low polyreactivity
QVQLVESGGGLVQAGGSLRLSCAASGSIFSIYAMGWYRQAPGKERELVASITRSSGRTYYADSVKGRFTISRDNAKNTVYLQMNSLKPEDTAVYYCAKDYIPLALDADDYWGQGTQVTVSS	low polyreactivity
QFQLVESGGGLVHAGGSLRLSCAASGITYWAYSMGWYRQARGKERELVAAIRFRGRTYYADSVKGRFTISRDNAKNSVYLQMNSLKAEDTAVYYFDADLSYWDDFEYWGQGNQVTVSS	low polyreactivity
QVHLVESGGGLVQAGGSLRLSCAASGRTFHVYAMGWYRQAPGKEREFVAFISRRGGSTYYADSVKGRFTISRDNAKNTVYLQMNSLKPEDTAVYYCNAKYPSNYVVQDDYWGQGTQVTVSS	high polyreactivity
QVQLVESGGGLVQAGGSLRLSCAASGLTVDTYDMGWYIQAPGKERELVAAIDWSGVSTYYADSVKGRFTISRDNAKNTVYLQKNSLKTEDTAVYYCAADLLQYDIASWDYTYDYWGQGTQVTVSS	low polyreactivity
QVQLVESGGGLVQAGGSLRLSCAASGRIFSRYAMGWDRQAPGKERELVAAINNGGSTYYADSVKGRFTISRDNAKNTVYLQMNSLKPEDTAVYYCAKLWWSNFKPVEYWGQGTQVTVSS	low polyreactivity
QVQLVESGGGLVQAGGSLRLSCAASGSIFVRYATMGWYRQAPGKERELVAAISRSGGSTYYADSVKGRFTISRDNAKNTVYLQMNSLKPEDTAVYYCANVSPSLRASGYDYWGQGTQVTVSS	high polyreactivity
QVQLVESGGGLVQAGGSLRLSCAASGRIFVGYYTMGWYRQAPGKERELVASITWGGGRTYYADSVKGRFTISRDNAKNTVYLQMNSLKPEDTAVYYCAAGYPANYYYLGQGTQVTVSS	high polyreactivity
QVQLVESGGGLVQAGGSLRLSCDASGRSSVSMLMVWYRQAPGKERELVARITGSGGSTYYADSVKGRFTISRDNAKNTVYLQMNSLKPEDTAVYYCAARYLWRGRYNYWGQGTQVTVSS	high polyreactivity
QVQLVESGGGLVQAGGRLRLSCAASGSTVRYYAMGGYRQAPVKERELVAAITSGGRTYYADSVKGRFTISRDNAKNTVYLQMNSLKPEDTAVYYCNARRYGSGMDYWGQGTQVTVSS	low polyreactivity
QVQLVESGGGLVQAGGSLRLSCAASGRTFSAYAMGWYRQAPGKERELVARITSVDSTNYADSVKRRFTISRDNAKNSVYLQINSLKPEDTAVYYCNATFGYPFVDYDDYWGQGTQVTVSS	low polyreactivity

Sequence	polyreactivity (PSR sort gate)
QVQLIESGGVLVQAGGSLRLSCAASGSTFTINVMGWYRQAPGKERELVAAINGGGRTNYADSVKGRFTISRDNAKNTVYLQINSLKPEDTAVYYCAADGLSNVRQMDYWGQGTQVTVSS	low polyreactivity
QVQLVESGRGLVQAGGSLRLSCAASGRIFRSYAMGWYIPAPGKERELFAAISRSGGSTYYADSVKGRFTISRDNGKNTVYLQMNSLKPEDTAVYYCASRYSLGTNSKFFAYGYWGQGTQVNVSS	high polyreactivity
QVQLVESGGGLVHAGGSLRLSCAASGSIYYAYAMGGYRQAPGKERELVATITWNGDSTYYADSVKGRFTISLDNAKNTVYLQMNSLKPEDTAVYYCAARYRWPIPGTQYEYWGQGTQVTVSS	low polyreactivity
QVQLVESGGGLVQAGGSLRLSCAASGSIFFYYAMGRYRQARGKERQLVAAISYSDGTTYYADSVKGRFTISRDNAKNTVYLQMNSLKPEDTAVYYCAADLWVGLVTLWDGYVQYDYWGQGTQVTVSS	low polyreactivity
QVHLVESGGGLVQAGGSLRLSCAASARTFTQNAMVWYRQAPGKERELVAAITRSGGSTYYADSVKGRFTISRDYAKNTVYLQMNSLKPEDTAVYYFIKYTHYYDYDYWGQGTQVTVSS	high polyreactivity
QVQLVESGGGLVQAGGSLRLSCAASGITLGRYAMGWYRQAPGQERELVAAISSWSGGSTTYADSVKGRFTISRDNAKNTVYLQMNSLKPEDTAVYYCNARRYYGRYYLGHSDYDYWGQGTQVTVSS	high polyreactivity
QVQLVESGGGLVQAGGSLRLSCAASGRIFYKYAMGWYRQAPGKERELVAGITRSGANTYYADSVKGRFTISRDNAKNTVYLQMNSLKPEDTAVYYCAVYIPRGGRSGYWGQGTQVTVSS	high polyreactivity
QVHLVESGGRLVQAGGSLRLSCAASGSTFGYYAMVWYRHAPGKDRELVAAITSGASTYYADSVKGRFTISRDNAKKTVYLQMNSLKPEDTAVYYCAARRWRKYYSGYNYWGQGTQVTVSA	high polyreactivity
QVQLVESGGGLVQAGGSLRLSCAASGRIFVYYAMGWYRQAPGKERELVAAITYSVDSTYYADSVKGRFTISRDNAKNTVYLQKNSLKPEDTAVYYCATDVDWAYGYQYEDWGQGTQVPVSS	low polyreactivity
QVQLVESGGGIVQAGGSLRLSCAASGNIFHKNAMGWYRQAPGKERELVASISWSGGSTYYADSVKGRFTISRDNAKNTVYLQMNSLKPEDTAVYYCATDAFGYPGNRYALNDYWGQGTQVTVSS	low polyreactivity
QVQLVESGGGLVQAGGSLRLSCAASGFIFSVYTMGWYRQAPGKERELVASITWSGGDTYYADSVKGRFTISRDNAKNTVYLQMNSLKPEDTAVYYCNVDAGFHDSYHAWNLRYDYWGQGTQVTVSS	low polyreactivity
QVQLVESGGGLVQAGGSLRLSCAASGRISFRYAMGWYRPAPGKERELVAAINRGGITNYADSVKGRFTISRDNAKNTVYLQMNSLKPEDTAVYYCAARWRGSGGFDYWGQGTQVTVSS	high polyreactivity
QVQHVESGGGLVQAGGSLRLSCAASGFIFWDYAMGWYRQAPGKERELVAAISDSGGDTYYADSVKGRFTISRDNAKNTVYLQMNSLIPEDTAVYYCAAETYCGGYPVTYDYWGQGTQVTVSS	low polyreactivity
QVQLVESGGGLVQAGGSLRLSCAASGFTFTYNDMGWYRQAPGKEREFVAAISSTGGSTYYADSVKGRFTISRDNAKNTVYLQMNSLIPEDTAVYYCAAEDSWYWDAWFDYWGQGTQVTVSS	low polyreactivity
QVQLVESGGGLVQAGGSLRLSCAASGITFYGYTIGWYRQAPGKERELVATITRGGSTYYADSVKGRFTISLDNAKNTVYLQMNSLKPEDTAGYYCAAESQYDYGVEFDYWGQGTQVTVSS	low polyreactivity
QVQLVESGGGLVQAGGSLRLSCAASGITLYQYAMGWYRQAPGKERELVAAISWNGGTTYYADSVKGRFTISRDNAKNNVYLQMNSLKPEDTAVYYCAADGYPYGGPSYYYWGQGTQVTVSS	high polyreactivity
